From US11789012B2, “Cell death biomarker” (UCL Business PLC, priority 2016, dated 2023) come the findings set out here.

The test system of one assay is NCI-H2052. Put plainly: rTRAIL response, viability assay, NCI-H2052. The note with it: BAP1 Wild-type. The class given is cell-based, Human. On the procedure: (§1) Manual “single dose” combination screening was undertaken using 96 well formats. Cells were plated on day 1 in previously optimized seeding densities in 180 μl if media. On day 2 20 μl of a 10× concentration of […] was added. Cells were then allowed to grow for 72 hrs or 6 days and fixed at the end of the assay. Drug wells were compared to DMSO treated control wells.
(§2) Single agent high throughput 5 point viability screening was undertaken in 384 well formats using robotic liquid handling with fixing with 4% paraformaldehyde and staining for viability with Syto60 nucleic acid dye (Invitrogen) (see below). Single agent dose response curves were derived for each library of 85-95 drugs according to the experiment used, and log IC50 or area under the curve (AUC) metrics were derived for each library compound in each cell line according to a previously derived formula [18].
(§3) Adherent cell lines were seeded 24 hours before drugging. Cells were trypsinised and counted before seeding at the optimal density for the size of well (96 or 384) and duration of assay. 72 hr after drug treatment cells were fixed with 4% paraformaldehyde for 30 minutes. […] Quantification of fluorescent signal was achieved using excitation/emission wavelength of 630/695 […].

The test system of another assay is 769P. Put plainly: rTRAIL viability, renal cell cancer cell line 769P. The class given is cell-based. The note with it: 769P renal; BAP1 missense mutation. An excerpt:
(§4) FIG. 8A is a graph showing the effect of rTRAIL on the viability of various cancer cell lines. Bladder (RT4) and Breast (HCC1187) cancer cell lines with nonsense mutations in BAP1 show sensitivity to rTRAIL while renal cell cancer cell lines (769P & RCC10RGB) with missense mutation and wild-type renal (BB65RCC) and bladder cancer (SW1710) cell lines are resistant to TRAIL.

The next assay concerns MDA MB-231. Put plainly: rTRAIL response after BAP1 knockdown in MDA MB-231. In kind it is cell-based. As to conditions: MDA MB-231 breast cancer cell line, BAP1 shRNA.
From the text: as §4
The deubiquitinase BAP1 is frequently mutated in pleural mesothelioma (36%), uveal melanoma (47%) and intrahepatic cholangiocarcinomas (25%) as previously noted. To determine whether additional BAP1 mutant tumours occur that may also be amenable to this therapeutic approach, the inventors extended this analysis to a cohort of 5180 tumour samples in 20 cancer types using variant data from The Cancer Genome Atlas (TCGA). Truncating BAP1 mutations were also observed in a diverse range of cancer types, with frequencies of up to 6% (see FIGS. 1b, and c) Carbone, M. et al, Nature Reviews Cancer 13, 153-159 (March 2013). When the inventors extended their analysis to a panel of 1001 cancer cell lines that had previously been submitted for whole exome and copy number analysis, they identified 17 cell lines harbouring truncating mutations in BAP1. These included clear cell kidney cancer, bladder cancer and breast cancer cell lines. […]

The next assay relates to MPP-89. Put plainly: rTRAIL response, viability assay, MPP-89. The class given is cell-based, Human. The note with it: BAP1 Wild-type. How it is done: as §1, §2, §3
Another assay has as its system H2591. Put plainly: rTRAIL response, viability assay, H2591. In kind it is cell-based, Human. As to conditions: BAP1 Wild-type. On the procedure:
as §1, §2, §3

Assay [1] has as its system H2818. Put plainly: Cell death response to rTRAIL after BAP1 shRNA knockdown in H2818. In kind it is cell-based, Human. The note with it: H2818 BAP1 wild-type line. On the procedure: (§5) Adherent mesothelioma cell lines were plated in a 96 well plate at approximately 10000 cells per well. Cells were plated and given 1 day to adhere at which time drug was added. After 48 hrs media, including floating cells, was collected from each well. The remaining adherent cells were washed with PBS and mobilised with 0.05% trypsin in EDTA. All cells were collected into tubes containing the previously removed media and pelleted by centrifugation (300 g, 5 minutes). Cells were then re-suspended in 1× Annexin V binding buffer with 10 μl/1 ml concentration of Annexin V-647 antibody (Invitrogen) and incubated for 15 minutes at room temperature. DAPI ([…]) was then added to each sample before flow cytometry analysis as below. Annexin V−/DAPI− cells were judged to be viable, AnnexinV+/DAPI− cells were considered to be undergoing apoptosis (early apoptotic phase), and Annexin V+/DAPI+ cells were considered late apoptotic or necrotic, and recorded as dead.
Lentivirus encoding shRNA targeting BAP1 was generated as per the lentivirus production protocol above. MPM cells (H2818) were transduced and treated with puromycin […] until a pure population was achieved. Immunoblotting was performed to assess efficacy of the shRNA knockdown.

Another assay concerns HCC1187. Put plainly: rTRAIL viability, breast cancer cell line HCC1187. The class given is cell-based. As to conditions: nonsense mutation in BAP1.
From the text: as §4

In a further assay the test system is RT4. Put plainly: rTRAIL viability, bladder cancer cell line RT4. In kind it is cell-based. The note with it: nonsense mutation in BAP1.
From the text: as §4

The next assay concerns H2731. Put plainly: rTRAIL response, viability assay, H2731. The class given is cell-based, Human. The note with it: BAP1 Essential Splice, heterozygous. How it is done:
as §1, §2, §3

Another assay has as its system H2803. Put plainly: rTRAIL response, viability assay, H2803. The class given is cell-based, Human. The note with it: BAP1 Wild-type. How it is done:
as §1, §2, §3

The next assay concerns H226. Put plainly: rTRAIL response, viability assay, H226. The class given is cell-based, Human. As to conditions: BAP1 Deletion, Homozygous. On the procedure: as §1, §2, §3
In the next assay the test system is NCI-H226. Put plainly: Annexin V/DAPI cell death assay, H226 parental and BAP1-transduced lines. In kind it is cell-based, Human. On the procedure:
FIG. 5A is an immunoblot for BAP1 protein in BAP1 null mesothelioma lines following transfection with empty vector and BAP1 expression vector. […] FIG. 5C is a graph showing the effect of rTRAIL on cell viability of an untransduced H226 cell line, a BAP1 (transduced) cell line, and a H226 cell line with the NLS deleted.
Untransduced BAP1-negative H226 cells, BAP1-expressing and catalytically dead BAP1-expressing H226 cells were treated with 100 ng/ml of FASL, TRAIL and TNF-alpha for 24 hours and cell death was quantified by Annexin V/DAPI assay. *p<0.05 indicating significant difference between untransduced H226 cells H226 BAP1 expressing cells. NS no significant difference between untransduced H226 cells and BAP1 C91A transduced cells. #p<0.05 indicating significant difference between untransduced H226 cells and BAP1 C91A transduced cells.
as §5

The subject of assay [2] is H2818. Put plainly: rTRAIL response, viability assay, H2818. The class given is cell-based, Human. As to conditions: BAP1 Wild-type. On the procedure: as §1, §2, §3
The test system of a further assay is H513. Put plainly: rTRAIL response, viability assay, H513. In kind it is cell-based, Human. How it is done:
as §1, §2, §3

The next assay concerns BB65RCC. Put plainly: rTRAIL viability, renal cell line BB65RCC. In kind it is cell-based. As to conditions: BAP1 wild-type.
From the text: as §4

For another assay, the system named is H2810. Put plainly: rTRAIL response, viability assay, H2810. The note with it: BAP1 Wild-type. In kind it is cell-based, Human. How it is done:
as §1, §2, §3

A further assay concerns H2369. Put plainly: rTRAIL response, viability assay, H2369. The note with it: BAP1 Wild-type. The class given is cell-based, Human. On the procedure:
as §1, §2, §3

B1: rTRAIL: recombinant protein that activates the TRAIL pathway by binding to TRAIL-R1 (DR 4) and TRAIL-R2 (DR 5) (protein, UniProt P50591 1-281, looked up)
Tumor necrosis factor ligand …: MAMMEVQGGPSLGQTCVLIVIFTVLLQSLCVAVTYVYFTNELKQMQDKYSKSGIACFLKEDDSYWDPNDEESMNSPCWQVKWQLRQLVRKMILRTSEETISTVQEKQQNISPLVRERGPQRVAAHITGTRGRSNTLSSPNSKNEKALGRKINSWESSRSGHSFLSNLHLRNGELVIHEKGFYYIYSQTYFRFQEEIKENTKNDKQMVQYIYKYTSYPDPILLMKSARNSCWSKDAEYGLYSIYQGGIFELKENDRIFVSVTNEHLIDMDHEASFFGAFLVG
B1: the rTRAIL response entry in the assay on NCI-H2052 is recorded as “Resistant”; with MPP-89 it was “Resistant”; with H2591, “Resistant”; in the assay with H2731, “Sensitive”; in the assay with H2803, “Resistant”; in the assay on H226, “Sensitive”. Moreover, the rTRAIL response entry in the assay with H2818 [2], in the assay on H513 (BAP1 Wild-type), in the assay on H2810 and with H2369 was “Resistant” throughout. The “response to TRAIL (viability)” value in the assay on 769P and in the assay on BB65RCC was “resistant” each time. The “sensitivity to rTRAIL after knockdown of BAP1” value in the assay on MDA MB-231 is “increases sensitivity”. For the same molecule, the “TRAIL sensitivity after ablation of BAP1 with lentiviral shRNA vs parental line” value in the assay with H2818 [1] is “shift towards increased sensitivity”. For the same molecule, the “response to rTRAIL (viability)” value in the assay with HCC1187 and with RT4 was “sensitivity” throughout. Moreover, the “sensitivity of H226 cells to cell death-inducing ligand, dependence on BAP1 catalytic domain” value in the assay with NCI-H226 (100 ng/ml, 24 hours, untransduced, BAP1-expressing and catalytically dead BAP1-expressing H226) is listed as “regulates the sensitivity”. Moreover, the “cell death relative to BAP1 null line” value with NCI-H226 (BAP1 expressing H226 cell line, dose range of TRAIL) is reported as “significantly reduced”. Besides, the cell death result in the assay with NCI-H226 (BAP1 null NCI-H226, dose range of TRAIL) was “increased cell death”. The TRAIL sensitivity result with H513 (BAP1 wild-type and ASXL3 mutant (truncating mutation)) is reported as “sensitive”.
